Data published in patent publication US20200172618A1 (GENE SIGNAL INTERNATIONAL, published 2020).

B1: 9bF4 mAb (mouse anti-human CD9P-1 monoclonal antibody, hybridoma CNCM I-5213) (antibody, V domains shown)
VH: QVQLQQSGAELVKPGTSVKLSCKTSGYTFTSYWIQWIKQRPGQGLGWIGEIFPGTGTTSYHEKFKGKATLTIDTSSSTAYLQLSNLTSEDSAVYFCSRDFDVWGAGTTVTVSS
VL: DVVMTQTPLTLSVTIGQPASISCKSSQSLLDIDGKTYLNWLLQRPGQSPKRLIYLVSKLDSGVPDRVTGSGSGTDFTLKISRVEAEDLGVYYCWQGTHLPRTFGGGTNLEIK
notes: Mouse IgG from a hybridoma, purified on protein G; also called Mouse IgG 9bF4; IgG 9bF4
B2: 10bB1 mAb (mouse anti-human CD9P-1 monoclonal antibody, hybridoma CNCM I-5214) (antibody, V domains shown)
VH: B1 VH
VL: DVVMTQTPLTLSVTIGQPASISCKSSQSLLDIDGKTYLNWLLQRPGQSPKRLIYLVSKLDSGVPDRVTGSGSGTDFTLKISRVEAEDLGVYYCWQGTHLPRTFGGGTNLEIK
notes: Mouse IgG from a hybridoma; also called IgG 10bB1; 10bB11

Target: T1, Strep-CD9P1-ECD (recombinant soluble human CD9P-1 extracellular domain with Strep tag) (human, UniProt Q9P2B2 22-832)
T1 construct: The limits 22-832 are stated for the recombinant extracellular domain made in CHO cells and used as immunogen; also called recombinant CD9P-1 extracellular domain; not shown: Strep tag; Residue numbers of the construct are 8 higher than those of CD9P-1
T1 sequence: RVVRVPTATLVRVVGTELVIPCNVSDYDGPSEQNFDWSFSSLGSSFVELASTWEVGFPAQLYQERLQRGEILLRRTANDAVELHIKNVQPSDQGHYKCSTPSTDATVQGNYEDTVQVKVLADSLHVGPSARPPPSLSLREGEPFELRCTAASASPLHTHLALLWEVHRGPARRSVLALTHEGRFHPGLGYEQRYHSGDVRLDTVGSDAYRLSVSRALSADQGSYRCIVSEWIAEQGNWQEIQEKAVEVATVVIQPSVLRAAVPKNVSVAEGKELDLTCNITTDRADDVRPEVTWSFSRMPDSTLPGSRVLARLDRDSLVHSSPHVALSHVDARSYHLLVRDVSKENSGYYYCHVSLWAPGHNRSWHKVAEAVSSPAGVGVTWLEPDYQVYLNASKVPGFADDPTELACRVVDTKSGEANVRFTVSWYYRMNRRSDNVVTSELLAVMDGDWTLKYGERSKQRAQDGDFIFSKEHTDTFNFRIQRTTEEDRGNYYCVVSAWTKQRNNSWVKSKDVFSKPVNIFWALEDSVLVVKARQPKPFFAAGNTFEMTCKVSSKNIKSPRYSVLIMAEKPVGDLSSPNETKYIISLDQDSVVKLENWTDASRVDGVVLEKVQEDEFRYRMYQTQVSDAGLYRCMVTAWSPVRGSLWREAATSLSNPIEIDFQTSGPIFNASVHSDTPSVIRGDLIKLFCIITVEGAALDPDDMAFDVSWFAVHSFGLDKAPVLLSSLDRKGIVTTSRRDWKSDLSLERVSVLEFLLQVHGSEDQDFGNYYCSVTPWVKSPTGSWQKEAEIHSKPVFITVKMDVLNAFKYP
Assay: SPR; Strep-CD9P1-ECD coated on sensor chip, antibody flowed over
From the text: Recombinant Strep-CD9P1-ECD was coated on sensor chip and several concentrations of the antibodies were flowed over the chip to obtain binding and dissociation kinetics.

Binder | Kd [nM] | koff [s⁻¹] | kon [M⁻¹ s⁻¹]
B1 | 90.9 | 0.00491 | 54100
B2 | 899 | 0.0118 | 13200
